What was measured:
[1] = target: T1, human ROR1 Frizzled domain (hROR1-Fz) (human, UniProt Q01973 165-305); assay: SPR Biacore, IgG on anti-Fc, ROR1-Fz analyte
T1 construct: Acro Biosystems, made in HEK293
Protocol: Anti-Fc polyclonal antibodies were immobilized onto a CMS chip (GE Life Sciences) using amine coupling chemistry (from Amine Coupling Kit, GE Life Sciences). The immobilization steps were carried out at a flow rate of 25 μL/min in 1×HBS-EP+buffer (GE Life Sciences; 10× Stock diluted before use). The sensor surfaces were activated for 7 min with a mixture of NHS (0.05 M) and EDC (0.2 M). The Anti-Fc antibodies were injected over all 4 flow cells at a concentration of 25 ug/ml in 10 mM sodium acetate, pH 4.5, for 7 min. Ethanolamine (1 M, pH 8.5) was injected for 7 min to block any remaining activated groups.
Off-rate and kinetic binding experiments were performed at 25° C. using 1×HBS-EP+buffer. Test and control antibodies were injected over the anti-Fc surface at concentrations of 5-10 μg/mL for 12 seconds at a flow rate of 10 μL/min on flow cells 2, 3 and 4, followed by a buffer wash for 30 seconds at the same flow rate. […] After capturing ligand (antibody) on the anti-Fc surface, the analyte (hROR1, Fz or Kr domains, Acro Biosystems, Delaware) was bound for 180 seconds, followed by a 600 second dissociation phase at a flow rate of 50 μL/min. Between each ligand capture and analyte binding cycle, regeneration was carried out using 2 injections of 10 mM Glycine pH 2.0 for 30 seconds at 30 μL/min, followed by a 30 second buffer wash step.

[2] = target: T2, human ROR1 (hROR1) (human, UniProt Q01973 30-937); assay: flow cytometry, HCT116-hROR1 cells
T2 construct: On HCT116-hROR1 transfectants, Mino cells or Ntera-2 cells, as the assay of each row says; also called receptor tyrosine kinase like orphan receptor 1
Protocol: A mix of ROR1 positive and negative cells was prepared as follows. Ror1 negative cells were washed 2× in PBS then incubated in PBS containing 1 nM CellTrace™ Oregon Green488® (Life Technologies) at 37° C. for 30 minutes. Cells were then washed 2× with RPMI w/10% fetal calf serum (or FCS), washed 2× with FACS buffer (PBS+0.5% BSA), suspended thoroughly in ice-cold FACS buffer at a final concentration of 4×10^6 cells/ml and kept on ice. ROR1 positive cells were washed 2× in PBS and suspended with ice-cold FACS buffer at 4×10^6 cells/ml. ROR1 positive and negative cells were then mixed to obtain a 1-1 cell suspension and seeded at 50 μl per well on 96 well polypropylene plates. 50 μl of 6-12 point dilutions of anti-ROR1 variants starting from concentrations of ˜100-200 nM antibody was dispensed using BioMekFX (Beckman Coulter) into each well. Cells were then incubated on ice for 1 hr, washed with FACS buffer and incubated for 1 hr on ice with 50 μl FACS buffer containing 2.5 μg/ml Alexa647-conjugated Goat Anti-Human IgG dispensed using BioMekFX (Beckman Coulter). Cells were then washed 2× with FACS buffer and fixed for 10 minutes in 200 μl PBS with 2% PFA prior to fluorescence detection. Samples were acquired using a Beckton Dickinson LSRII FACS. Mean Fluorescence Intensity of ROR1 antibody binding was analyzed using FlowJo® software (Tree Star, Inc.).

Kd [1] [nM] | koff [1] [s⁻¹] | kon [1] [M⁻¹ s⁻¹] | Bmax (MFI) [2] [MFI] | Kd [2] [nM] | Binder
97.6 | 0.05 | 539000 | – | – | SRP1943-C02 (antibody, IgG1, V domains shown, Parent of SRP2193; His/FLAG-tagged IgG1, cell-free; also called Antibody 70) VH: EVQLVESGGGLAQPGGSLRLSCAAPGFNINDYYIHWVRQAPGKGLEWVGAIDPNSGSTDYADSVKGRFAISADTSKNTAYLQMNSLRAEDTAVYYCARSRWFRVLWSYVFDYWGQGTLVTVSS VL: not shown
– | – | – | 15900 | 0.39 | SRP2193-C01 (antibody, IgG1, V domains shown, His/FLAG-tagged IgG1, cell-free) VH: EVQLVESGGGLVQPGGSLRLSCAASGLNINDHYIHWVRQAPGKGLEWVGTIDPKSGSTHVADSVKGRFTISADTSKNTAYLQMNSLRAEDTAVYYCARSRWFRVLWSYVFDYWGQGTLVTVSS VL: not shown
– | – | – | 14700 | 1.08 | SRP2193-B10 (antibody, IgG1, V domains shown, His/FLAG-tagged IgG1, cell-free; also called Antibody 88) VH: EVQLVESGGGLVQPGGSLRLSCAASGFNIADYYVHWVRQAPGKGLEWVGAIDPNSGYTVKADSVKGRFTISADTSKNTAYLQMNSLRAEDTAVYYCARSRWLRVLWSFVFDYWGQGTLVTVSS VL: not shown
– | – | – | 16600 | 0.32 | SRP2193-C10 (antibody, IgG1, V domains shown, His/FLAG-tagged IgG1, cell-free; also called Antibody 123) VH: EVQLVESGGGLVQPGGSLRLSCAASGFNINNAYIHWVRQAPGKGLEWVGAIDPRSGSTISADSMKGRFTISADTSKNTAYLQMNSLRAEDTAVYYCARSRWFRVLWSFGFDYWGQGTLVTVSS VL: not shown
– | – | – | 16300 | 0.46 | SRP2193-E09 (antibody, IgG1, V domains shown, His/FLAG-tagged IgG1, cell-free) VH: EVQLVESGGGLVQPGGSLRLPCAASGFNIGAYYIHWVRQAPGKGLEWVGAIDPGSGYTVPADSVKGRFTISADTSKNTAYLQMNSLRAEDTAVYYCARSRWYRVLWSYVFDYWGQGTLVTVSS VL: not shown
– | – | – | 15900 | 7.14 | SRP2193-E10 (antibody, IgG1, V domains shown, His/FLAG-tagged IgG1, cell-free; also called Antibody 72) VH: EVQLVESGGGLVQPGGSLRLSCAASGFNIYDYYIHWVRQAPGKGLEWVGAIDPVNGSTNNADSVKGRFTISADTSKNTAYLQMNSLRAEDTAVYYCARSRWYRVLWSYVFDYWGQGTLVTVSS VL: not shown
– | – | – | 16400 | 8.13 | SRP2193-E02 (antibody, IgG1, V domains shown, His/FLAG-tagged IgG1, cell-free) VH: EVQLVESGGGLVQPGGSLRLSCAASGFNIKDYYIHWVRQAPGKGLEWVGSIDPTSGSTVIADSVKGRFTISADTSKNTAYLQMNSLRAEDTAVYYCARSRWWRVLWSYVFDYWGQGTLVTVSS VL: not shown
– | – | – | 8250 | 0.16 | SRP2194-A10 (antibody, IgG1, V domains shown, His/FLAG-tagged IgG1, cell-free) VH: EVQLVESGGGLVQPGGSLRLSCAASGFNITQYYIHWVRQAPAKGLEWVGYISPNSGSTHIADSVKGRFTISADTSKNTAYLQMNSLRAEDTAVYYCARDSRRYVRPFDYWGQSTLVTVSS VL: not shown

More lines, now with the values behind:

Binder | Kd [1] [nM] | koff [1] [s⁻¹] | kon [1] [M⁻¹ s⁻¹] | Bmax (MFI) [2] [MFI] | Kd [2] [nM]
SRP2193-B05 (antibody, IgG1, V domains shown, His/FLAG-tagged IgG1, cell-free; also called Antibody 109) VH: EVQLVESGGGLVQPGGSLRLSCAASGFNINQYYIHWVRQAPGEGLEWVGAIDPIGGSTHLADSVKGRFTISADTSKNTAYLQMNSLRAEDAAVYYCARSRWYRVLWSYVFDYWGQGTLVTVSS VL: not shown | – | – | – | 15400 | 0.47
SRP2193-B07 (antibody, IgG1, V domains shown, His/FLAG-tagged IgG1, cell-free) VH: EVQLVESGGGLVQPGGSLRLSCAASGFNINNSYIHWVRQAPGKGLEWVGAIDPNSGSTLSADSVKGRFTISADTSKSTAYLQMNSLRAEDTAVYYCARSRWFRVLWSYIFDYWGQGTLVTVSS VL: not shown | – | – | – | 15500 | 0.6
SRP2193-C03 (antibody, IgG1, V domains shown, His/FLAG-tagged IgG1, cell-free) VH: EVQLVESGGGLVQPGGSLRLSCAASGFNINYSYIHWVRQAPGKGLEWVGAIEPKSGSTASADSVKGRFTISADTSKNTAYLQMNSLRAEDAAVYYCARSRWYRVLWSYVLDYWGQGTLVTVSS VL: not shown | – | – | – | 15700 | 0.14
SRP2193-C08 (antibody, IgG1, V domains shown, His/FLAG-tagged IgG1, cell-free; also called Antibody 99) VH: EVQLVESGSGLVQPGGSLRLSCAASGFNINHYYIHWVRQAPGKGLEWVGAIDPYPGSTYNADSVKGRFTISADTSKNTAYLQMNSLRAEDTAVYYCARSRWFRVLWSYVFDYWGQGTLVTVSS VL: not shown | – | – | – | 15000 | 0.72
SRP2193-D11 (antibody, IgG1, V domains shown, His/FLAG-tagged IgG1, cell-free; also called Antibody 76) VH: EVQLVESGGGSVQPGGSLRLSCAASGFNINAYYIHWVRQAPGKGLEWVGAIDPNTGSTVDADSVKGRFTISADTSKNTAYLQMNSLRAEDTAVYYCARSRWFRVLWSYVFDYWGQGTLVTVSS VL: not shown | – | – | – | 15200 | 1.25
SRP2193-C05 (antibody, IgG1, V domains shown, His/FLAG-tagged IgG1, cell-free; also called Antibody 91) VH: EVQLVESGGGLVQPGGSLRLSCAASGFNIKHSYIHWVRQAPGKGLEWVGAIDPHNGSTASADSVKGRFTISADTSKNTAYLQMNSLRAEDTAVHYCARSRWFRVLWSYVIDYWGQGTLVTVSS VL: not shown | – | – | – | 15100 | 1.75
SRP2193-B08 (antibody, IgG1, V domains shown, His/FLAG-tagged IgG1, cell-free; also called Antibody 90) VH: EVQLVESGGGLVQPGGSLRLSCAASGFNIKDYYIHWVRQAPGKGLEWVSAIDPSPGATLDADSVKGRFTISADTSKNTAYLQMNSLRAEDTAVYYCARSRWFRVLWSYALDYWGQGTLVTVSS VL: not shown | – | – | – | 14300 | 1.15
SRP2193-C06 (antibody, IgG1, V domains shown, His/FLAG-tagged IgG1, cell-free) VH: EVQLVESGGGLVQPGGSLRLSCAASGFNIIVHYIHWVRQAPGKGLEWVSAIDPISGSTQWADSVKGRFTISADTSKNTAYLQMNSLRAEDTAVYYCARSRWRRALWIYVFDYWGQGTLVTVSS VL: not shown | – | – | – | 14500 | 4.16
SRP2193-E04 (antibody, IgG1, V domains shown, His/FLAG-tagged IgG1, cell-free; also called Antibody 74) VH: EVQLVESGGGLVQPGGSLRLSCAASGFNINDRYIHWVRQAPGKGLEWVGVIDPSLGSTIDADSVKGRFTISADTSRNTAYLQMNSLRAEDTAVYYCARSRWFRVLWSYVFDYWGQGTLVTVSS VL: not shown | – | – | – | 14400 | 15.6
SRP2193-D03 (antibody, IgG1, V domains shown, His/FLAG-tagged IgG1, cell-free; also called Antibody 93) VH: EVQLVESGGGLVQPGGSLRLSCAASGFNINDHYIHWVRQAPGKGLEWVSAIDPNTGSTVNADSVKGRFTISADTSKNTAYLQMNSLRAEDTAVYYCARSRWSRVLWIYVFDYWGQGTLVTVSS VL: not shown | – | – | – | 15700 | 0.93
SRP2193-D07 (antibody, IgG1, V domains shown, His/FLAG-tagged IgG1, cell-free) VH: EVQLVESGGGLVQPGGSLRLSCAASGFNIIDYNIHWVRQAPGKGLEWVTAIGPADGSTVNADSLKGRFTISADTSKNTAYLQMNSLRAEDTAVYYCARSRWLRVLWSYVFDYWGQGTLVTVSS VL: not shown | – | – | – | 15400 | 3.11
SRP2194-A03 (antibody, IgG1, V domains shown, His/FLAG-tagged IgG1, cell-free) VH: EVQLVESGGGLVQPGGPLRLSCAASGFNITGYYIHWVRQAPGKGLEWVGYITPNSGTTYSADSVKGRFTISADTSKNTAYLQMNSLRAEDTAVYYCARDSRRYVRPLDYWGQGTLVTVSS VL: not shown | – | – | – | 7610 | 5.35
SRP2194-A09 (antibody, IgG1, V domains shown, His/FLAG-tagged IgG1, cell-free; also called Antibody 130) VH: EVQLVESGGGLVQPGGSLRLSCAASGFNITGYYIHWVRQAPGKGLEWVGYITPLSGATYRADSVKGRFTISADTSKNTAYLQMNSLRAEDTAVYYCARDSRRYVRPFDYWGQGTLVTVSS VL: not shown | – | – | – | 8240 | 0.13
SRP2194-A08 (antibody, IgG1, V domains shown, His/FLAG-tagged IgG1, cell-free) VH: EVQLVESGGGLVQPGGSLRLSCAASGFNITGYHIHWVRQAPGKGLEWVGYIAPSSGYTYDADSVKGRFTISADTSKNTAYLQMNSLRAEDTAVYYCARDSRRYVRPFDYWGQGTLVTVSS VL: not shown | – | – | – | 8250 | 0.3

Reference: patent publication US20240058465A1 (SUTRO BIOPHARMA, published 2024)
